The values below come from US20250032605A1.

The target of test [1] is SARS-2 RBD (wild-type SARS-CoV-2 receptor binding domain, monomer) (SARS-CoV-2) (UniProt P0DTC2). In words: BLI, Fab on FAB2G sensor, RBD as analyte, apparent KD. A general note: BLI is a label-free optical method that tracks binding on a fibre tip over time.
In test [2] the target is WIV1 RBD (WIV1-CoV receptor binding domain, monomer) (WIV1-CoV). As to the kind of experiment: BLI, Fab on FAB2G sensor, RBD as analyte, apparent KD.
Test [3] deals with SARS-1 RBD (SARS-CoV receptor binding domain, monomer) (SARS-CoV (SARS-1)) (UniProt P59594). Described as above.

With B38 Fab, the Kd in test [1] was 970 nM; with SARS-2^hg (row Trimer), 3200 nM.
Regarding CR3022 Fab, the Kd in test [2] was 37 nM; in test [3] it was 27 nM.
